Results: EP4782466A1, “FUSION PROTEIN FOR INACTIVATING CORONAVIRUS AND USE THEREOF” (priority 2023, dated 2025)

Experiments:
Assay in all cases: cell-based or functional assay
[1] = target: S protein of SARS-CoV-2 Alpha (B.1.1.7) (SARS-CoV-2 Alpha (B.1.1.7))
[2] = target: S protein of SARS-CoV-2 Beta (B.1.351) (SARS-CoV-2 Beta (B.1.351))
[3] = target: S protein of SARS-CoV-2 Delta (B.1.617.2) (SARS-CoV-2 Delta (B.1.617.2))
[4] = target: S protein of SARS-CoV-2 Gamma (P.1) (SARS-CoV-2 Gamma (P.1))
[5] = target: S protein of SARS-CoV-2 Lambda (SARS-CoV-2 Lambda)
[6] = target: S protein of SARS-CoV-2 Omicron BA.1 (SARS-CoV-2 BA.1)
[7] = target: S protein of SARS-CoV-2 Omicron BA.2 (SARS-CoV-2 BA.2)
[8] = target: S protein of SARS-CoV-2 Omicron BA.2.12.1 (SARS-CoV-2 BA.2.12.1)
[9] = target: S protein of SARS-CoV-2 Omicron BA.2.2 (SARS-CoV-2 BA.2.2)
[10] = target: S protein of SARS-CoV-2 Omicron BA.2.75 (SARS-CoV-2 BA.2.75)
[11] = target: S protein of SARS-CoV-2 Omicron BA.2.9 (SARS-CoV-2 BA.2.9)
[12] = target: S protein of SARS-CoV-2 Omicron BA.3 (SARS-CoV-2 BA.3)
[13] = target: S protein of SARS-CoV-2 Omicron BA.4.6 (SARS-CoV-2 BA.4.6)
[14] = target: S protein of SARS-CoV-2 Omicron BA.5 (SARS-CoV-2 BA.5)
[15] = target: S protein of SARS-CoV-2 Omicron BF.7 (SARS-CoV-2 BF.7)
[16] = target: S protein of SARS-CoV-2 Omicron BQ.1 (SARS-CoV-2 BQ.1)
[17] = target: S protein of SARS-CoV-2 Omicron XBB (SARS-CoV-2 XBB)

Substance: ACE2 protein alone (ACE2 peptidase domain alone) (from UniProt Q9BYF1 18-615) (receptor)
- EC50, inactivation of pseudovirus (Caco-2, luciferase) [1]: 243 nM
- IC50, inhibition of pseudovirus infection (Caco-2, luciferase) [1]: 6.2 nM
- EC50, inactivation of pseudovirus (Caco-2, luciferase) [2]: 123 nM
- IC50, inhibition of pseudovirus infection (Caco-2, luciferase) [2]: 16.1 nM
- EC50, inactivation of pseudovirus (Caco-2, luciferase) [3]: 605 nM
- IC50, inhibition of pseudovirus infection (Caco-2, luciferase) [3]: 4.85 nM
- EC50, inactivation of pseudovirus (Caco-2, luciferase) [4]: 88.5 nM
- IC50, inhibition of pseudovirus infection (Caco-2, luciferase) [4]: 15.1 nM
- EC50, inactivation of pseudovirus (Caco-2, luciferase) [5]: 116 nM
- IC50, inhibition of pseudovirus infection (Caco-2, luciferase) [5]: 12.8 nM
- EC50, inactivation of pseudovirus (Caco-2, luciferase) [6]: 82.2 nM
- IC50, inhibition of pseudovirus infection (Caco-2, luciferase) [6]: 18.7 nM
- EC50, inactivation of pseudovirus (Caco-2, luciferase) [7]: 329 nM
- IC50, inhibition of pseudovirus infection (Caco-2, luciferase) [7]: 12.6 nM
- EC50, inactivation of pseudovirus (Caco-2, luciferase) [8]: 76.1 nM
- IC50, inhibition of pseudovirus infection (Caco-2, luciferase) [8]: 10.6 nM
- EC50, inactivation of pseudovirus (Caco-2, luciferase) [9]: 476 nM
- IC50, inhibition of pseudovirus infection (Caco-2, luciferase) [9]: 11.9 nM
- EC50, inactivation of pseudovirus (Caco-2, luciferase) [10]: 677 nM
- IC50, inhibition of pseudovirus infection (Caco-2, luciferase) [10]: 26.5 nM
- EC50, inactivation of pseudovirus (Caco-2, luciferase) [11]: 407 nM
- IC50, inhibition of pseudovirus infection (Caco-2, luciferase) [11]: 7.63 nM
- EC50, inactivation of pseudovirus (Caco-2, luciferase) [12]: 52.1 nM
- IC50, inhibition of pseudovirus infection (Caco-2, luciferase) [12]: 6.51 nM
- EC50, inactivation of pseudovirus (Caco-2, luciferase) [13]: 1160 nM
- IC50, inhibition of pseudovirus infection (Caco-2, luciferase) [13]: 65.9 nM
- EC50, inactivation of pseudovirus (Caco-2, luciferase) [14]: 336 nM
- IC50, inhibition of pseudovirus infection (Caco-2, luciferase) [14]: 15.3 nM
- EC50, inactivation of pseudovirus (Caco-2, luciferase) [15]: 192 nM
- IC50, inhibition of pseudovirus infection (Caco-2, luciferase) [15]: 101 nM
- EC50, inactivation of pseudovirus (Caco-2, luciferase) [16]: 149 nM
- IC50, inhibition of pseudovirus infection (Caco-2, luciferase) [16]: 21.8 nM
- EC50, inactivation of pseudovirus (Caco-2, luciferase) [17]: 212 nM
- IC50, inhibition of pseudovirus infection (Caco-2, luciferase) [17]: 12.7 nM

Substance: AL2E protein (ACE2-linker-EK1 fusion protein with (GGGGS)2 linker) (from UniProt Q9BYF1 18-615)
- IC50, inhibition of pseudovirus infection (Caco-2, luciferase) [1]: 0.22 nM
- IC50, inhibition of pseudovirus infection (Caco-2, luciferase) [2]: 0.27 nM
- IC50, inhibition of pseudovirus infection (Caco-2, luciferase) [3]: 0.32 nM
- IC50, inhibition of pseudovirus infection (Caco-2, luciferase) [4]: 0.39 nM
- IC50, inhibition of pseudovirus infection (Caco-2, luciferase) [5]: 0.09 nM
- IC50, inhibition of pseudovirus infection (Caco-2, luciferase) [6]: 0.18 nM
- IC50, inhibition of pseudovirus infection (Caco-2, luciferase) [7]: 0.16 nM
- IC50, inhibition of pseudovirus infection (Caco-2, luciferase) [8]: 0.26 nM
- IC50, inhibition of pseudovirus infection (Caco-2, luciferase) [9]: 0.4 nM
- IC50, inhibition of pseudovirus infection (Caco-2, luciferase) [10]: 0.69 nM
- IC50, inhibition of pseudovirus infection (Caco-2, luciferase) [11]: 0.43 nM
- IC50, inhibition of pseudovirus infection (Caco-2, luciferase) [12]: 0.58 nM
- IC50, inhibition of pseudovirus infection (Caco-2, luciferase) [13]: 1.03 nM
- IC50, inhibition of pseudovirus infection (Caco-2, luciferase) [14]: 0.1 nM
- IC50, inhibition of pseudovirus infection (Caco-2, luciferase) [15]: 0.46 nM
- IC50, inhibition of pseudovirus infection (Caco-2, luciferase) [16]: 0.4 nM
- IC50, inhibition of pseudovirus infection (Caco-2, luciferase) [17]: 0.64 nM
